System: human colon cancer cell line LS174T
Conditions: mouse, in vivo

In the case of “Rtx-TCO: TCO-modified rituximab for control in vivo experiments; lacks specificity for TAG72”, the “tumor-to-blood ratio (T/B)” value is reported as 0.6±0.0 and the “tumor-to-muscle ratio (T/M)” value is reported as 4.9±0.8.
